These results are taken from patent publication US20210388079A1.

The target of assay [1] is HLA-A*02/SPINK2-001 tetramer (human). As to the kind of experiment: flow cytometry, HLA-A*02/SPINK2-001 tetramer staining of TCR-RNA-electroporated CD8+ T-cells; mock cells 0.97%. For orientation: Flow cytometry measures light scatter and fluorescence of single cells or particles in a stream.
Assay [2] concerns the target NYESO1-001 (tetramer, row label of Figure 31) (human). The experiment in a line: flow cytometry, HLA-A*02/NYESO1-001 tetramer staining of TCR-RNA-electroporated CD8+ T-cells; mock cells 1.09%.

B1: TCR R49P2B7, alpha and beta chains expressed in human primary CD8+ T-cells by RNA electroporation (TCR, V domains shown)
V domain 1: AQSVTQLGSHVSVSEGALVLLRCNYSSSVPPYLFWYVQYPNQGLQLLLKYTTGATLVKGINGFEAEFKKSETSFHLTKPSAHMSDAAEYFCAVRIFGNEKLTFGTGTRLTIIP
V domain 2: DVKVTQSSRYLVKRTGEKVFLECVQDMDHENMFWYRQDPGLGLRLIYFSYDVKMKEKGDIPEGYSVSREKKERFSLILESASTNQTSMYLCASSLMGELTGELFFGEGSRLTVLE
B1: the % of CD8+ T-cells in the tetramer-positive gate in assay [1] amounted to 30%; in assay [2], 0.96%.
